Columns and labels:
Conditions in all cases: 20 nM; 72 h
[1] = tested on: MCF10A; assay: percent viability (nuclei count relative to siNT); higher = more viable cells
Protocol: (§1)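 After 72 h, cells were fixed and stained with Hoechst and anti-fibrillarin, and nucleoli per nucleus were counted with CellProfiler. Values are plate-adjusted percent effect for the one-nucleolus and 5+ nucleoli phenotypes, normalised to siNT (0%) and to the positive controls siNOL11 or siKIF11 (100%), as the mean of biological triplicates. Percent viability is the nuclei count relative to siNT.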

[2] = tested on: MCF10A; assay: one-nucleolus phenotype percent effect (relative to siNT 0% and siNOL11 100%); higher = more cells with one nucleolus (ribosome biogenesis inhibition)
Protocol: as §1

[3] = tested on: MCF10A; assay: 5+ nucleoli phenotype percent effect (relative to siNT 0% and siKIF11 100%); higher = more cells with five or more nucleoli
Protocol: as §1

Sequence | percent viability [1] [%] | one-nucleolus phenotype percent effect [2] [%] | 5+ nucleoli phenotype percent effect [3] [%]
CCUCCUGCCCUCCUUGCUGU [hsa-miR-1976] | 79.5 | 7.39 | 21.5
CCUCGGUACUGGAAAGGGGUA [hsa-miR-8088] | 108 | -9.43 | 15.8
CCUCUAAAGGGAAGCGCUUUCU [hsa-miR-520f-5p] | 119 | -26.3 | 57.3
CCUCUAGAUGGAAGCACUGUCU [hsa-miR-517-5p] | 56 | 2.26 | 23.9
CCUCUCCUCCCUGUGCCCCAG [hsa-miR-6845-3p] | 60.1 | -13.8 | 26.2
CCUCUGAAAUUCAGUUCUUCAG [hsa-miR-146a-3p] | 125 | -13.5 | 27.1
CCUCUGGGCCCUUCCUCCAG [hsa-miR-326] | 20.2 | 56.9 | -35.6
CCUCUUCCCCUUGUCUCUCCAG [hsa-miR-1236-3p] | 76.4 | -6.25 | 14.8
CCUGACACCCCAUCUGCCCUCA [hsa-miR-6730-3p] | 61.8 | 26.8 | -26.1
CCUGACCCACCCCCUCCCGCAG [hsa-miR-4750-3p] | 95.7 | -19.1 | 40.4
CCUGAGAAAAGGGCCAA [hsa-miR-4251] | 31.3 | 15.3 | -4.33
CCUGAGACCCUAGUUCCAC [hsa-miR-4329] | 60.7 | -7.16 | 1.67
CCUGAGCCCGGGCCGCGCAG [hsa-miR-1199-5p] | 71.4 | -24.2 | 27.4
CCUGAUCCCACAGCCCACCU [hsa-miR-3151-3p] | 66.1 | -1.47 | 2.64
CCUGCAACUUUGCCUGAUCAGA [hsa-miR-4772-3p] | 47.3 | -15.1 | 16.6
CCUGCAGAGAGGAAGCCCUUC [hsa-miR-3158-5p] | 38.5 | 26.4 | -45.3
CCUGCAGCGACUUGAUGGCUUCC [hsa-miR-1184] | 70.1 | 4.01 | -8.51
CCUGCGAGUCUCCGGCGGUGG [hsa-miR-6068] | 97.4 | -17.2 | 24.3
CCUGCGUGUUUUCUGUCCAA [hsa-miR-4520a-5p] | 52.7 | 3.67 | -4.05
CCUGCGUGUUUUCUGUCCAA [hsa-miR-4520b-5p] | 51 | 1.66 | -6.92
CCUGCUGGUCAGGAGUGGAUACUG [hsa-miR-3692-5p] | 32.9 | 2.08 | 6.3
CCUGGAAACACUGAGGUUGUG [hsa-miR-875-3p] | 155 | -26.1 | 37.4
CCUGGACACCGCUCAGCCGGCCG [hsa-miR-4638-3p] | 106 | -15.8 | 8.98
CCUGGCAUAUUUGGUAUAACUU [hsa-miR-4720-5p] | 31.3 | 1.6 | 46.4
CCUGGGCAGCGUGUGGCUGAAGG [hsa-miR-3187-5p] | 66.4 | -3.44 | 41.1
CCUGGGGACAGGGGAUUGGGGCAG [hsa-miR-8089] | 93.2 | -19.7 | 40.1
CCUGGUGGCUUCCUUUU [hsa-miR-4456] | 23.6 | 6.37 | -4.84
CCUGUCUGUGCCUGCUGUACA [hsa-miR-3120-5p] | 127 | -1.5 | 4.71
CCUGUGCUCCCAGGGCCUCGC [hsa-miR-5008-3p] | 77.3 | -14.5 | 24
CCUGUGGGCCACCUAGUCACCAA [hsa-miR-134-3p] | 44.8 | 8.84 | -15.2

— the supplement of paper PMC10899765
